Laboratory results taken from US20240352096A1 (KANGLIN BIOTECHNOLOGY HANGZHOU, published 2024).

Assays:
Test in all cases: cell-based or functional assay
[1] = target: T1, HIV-1 envelope protein of HIV-1 strain pAD-8 (CCR5 tropism) (HIV-1 strain pAD-8)
[2] = target: T2, HIV-1 envelope protein of HIV-1 strain pNL4-3 (CXCR4 tropism) (HIV-1 strain pNL4-3)
[3] = target: T1, HIV-1 envelope protein of HIV-1 strain …; remark: listed apart in the source
[4] = target: T2, HIV-1 envelope protein of HIV-1 strain …; remark: listed apart in the source
[5] = target: T1, HIV-1 envelope protein of HIV-1 strain …; remark: listed apart in the source
[6] = target: T2, HIV-1 envelope protein of HIV-1 strain …; remark: listed apart in the source

Row | Binder | Neutralization percentage; AAV vector-transduced C2C12 supernatant, antibody concentration 2.5 ng/ml; TZM-bl luciferase [1] [%] | Neutralization percentage; AAV vector-transduced C2C12 supernatant, antibody concentration 5 ng/ml; TZM-bl luciferase [1] [%] | Neutralization percentage; AAV vector-transduced C2C12 supernatant, antibody concentration 10 ng/ml; TZM-bl luciferase [1] [%] | Neutralization percentage; AAV vector-transduced C2C12 supernatant, antibody concentration 2.5 ng/ml; TZM-bl luciferase [2] [%] | Neutralization percentage; AAV vector-transduced C2C12 supernatant, antibody concentration 5 ng/ml; TZM-bl luciferase [2] [%] | Neutralization percentage; AAV vector-transduced C2C12 supernatant, antibody concentration 10 ng/ml; TZM-bl luciferase [2] [%] | Neutralization percentage; serum of mice injected with AAV vector, serum stock volume 0.005 uL; TZM-bl luciferase [3] [%] | Neutralization percentage; serum of mice injected with AAV vector, serum stock volume 0.05 uL; TZM-bl luciferase [3] [%] | Neutralization percentage; serum of mice injected with AAV vector, serum stock volume 0.5 uL; TZM-bl luciferase [3] [%] | Neutralization percentage; serum of mice injected with AAV vector, serum stock volume 0.005 uL; TZM-bl luciferase [4] [%] | Neutralization percentage; serum of mice injected with AAV vector, serum stock volume 0.05 uL; TZM-bl luciferase [4] [%] | Neutralization percentage; serum of mice injected with AAV vector, serum stock volume 0.5 uL; TZM-bl luciferase [4] [%] | IC50 for neutralizing HIV-1 strain pAD-8 (CCR5 tropism); purified antibody, TZM-bl luciferase [5] [pM] | IC50 for neutralizing HIV-1 strain pNL4-3 (CXCR4 tropism); purified antibody, TZM-bl luciferase [6] [pM]
1 | Anti-HIV amphotropic neutralizing antibody-like molecule KL-BsHIV01-02 (bispecific antibody) SELTQDPAVSVALKQTVTITCRGDSLRSHYASWYQKKPGQAPVLLFYGKNNRPSGIPDRFSGSASGNRASLTITGAQAEDEADYYCSSRDKSGSRLSVFGGGTKLTVLGGGGSGGGGSGGGGSEVRLRESGGGLVKPGGSLRLSCSASGFDFDNAWMTWVRQPPGKGLEWVGRITGPGEGWSVDYAESVKGRFTISRDNTKNTLYLEMNNVRTEDTGYYFCARTGKYYDFWFGYPPGEEYFQDWGQGTLVIVSSGGGGSGGGGSGGGGSGGGGSGGGGSDIVMTQSPDSLAVSLGERVTMNCKSSQSLLYSTNQKNYLAWYQQKPGQSPKLLIYWASTRESGVPDRFSGSGSGTDFTLTISSVQAEDVAVYYCQQYYSYRTFGGGTKLEIKRTVAGGGGSGGGGSGGGGSQVQLQQSGPEVVKPGASVKMSCKASGYTFTSYVIHWVRQKPGQGLDWIGYINPYNDGTDYDEKFKGKATLTSDTSTSTAYMELSSLRSEDTAVYYCAREKDNYATGAWFAYWGQGTLVTVSS | 100 | 100 | 100 | 100 | 101 | 100 | -15.7 | -4.43 | 81.7 | 27.7 | 79 | 100 | – | –
2 | Anti-HIV tritropic neutralizing antibody-like molecule KL-BsHIV01-003-02 (other) SELTQDPAVSVALKQTVTITCRGDSLRSHYASWYQKKPGQAPVLLFYGKNNRPSGIPDRFSGSASGNRASLTITGAQAEDEADYYCSSRDKSGSRLSVFGGGTKLTVLGGGGSGGGGSGGGGSEVRLRESGGGLVKPGGSLRLSCSASGFDFDNAWMTWVRQPPGKGLEWVGRITGPGEGWSVDYAESVKGRFTISRDNTKNTLYLEMNNVRTEDTGYYFCARTGKYYDFWFGYPPGEEYFQDWGQGTLVIVSSGGGGSGGGGSGGGGSGGGGSGGGGSDIVMTQSPDSLAVSLGERVTMNCKSSQSLLYSTNQKNYLAWYQQKPGQSPKLLIYWASTRESGVPDRFSGSGSGTDFTLTISSVQAEDVAVYYCQQYYSYRTFGGGTKLEIKRTVAGGGGSGGGGSGGGGSQVQLQQSGPEVVKPGASVKMSCKASGYTFTSYVIHWVRQKPGQGLDWIGYINPYNDGTDYDEKFKGKATLTSDTSTSTAYMELSSLRSEDTAVYYCAREKDNYATGAWFAYWGQGTLVTVSSGGGGSGGGGSGGGGSGGGGSGGGGSWEQKIEELLKKAEEQQKKNEEELKKLEK | 100 | 100 | 100 | 101 | 101 | 100 | -11.7 | -6.85 | 62.5 | 23.4 | 56.7 | 99.4 | 3.1 | 0.2
